First the molecules themselves.
B1: Trastuzumab HCDR3 variant ARYYGYYYYMDY (Fab, V domains shown)
VH: EVQLVESGGGLVQPGGSLRLSCAASGFNIKDTYIHWVRQAPGKGLEWVARIYPTNGYTRYADSVKGRFTISADTSKNTAYLQMNSLRAEDTAVYYCARYYGYYYYMDYWGQGTLVTVSS
VL: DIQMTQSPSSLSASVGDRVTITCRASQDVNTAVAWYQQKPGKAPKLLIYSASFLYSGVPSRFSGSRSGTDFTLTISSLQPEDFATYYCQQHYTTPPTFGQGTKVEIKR
B2: Trastuzumab HCDR3 variant TRTTLGFYAMDY (Fab, V domains shown)
VH: EVQLVESGGGLVQPGGSLRLSCAASGFNIKDTYIHWVRQAPGKGLEWVARIYPTNGYTRYADSVKGRFTISADTSKNTAYLQMNSLRAEDTAVYYCTRTTLGFYAMDYWGQGTLVTVSS
VL: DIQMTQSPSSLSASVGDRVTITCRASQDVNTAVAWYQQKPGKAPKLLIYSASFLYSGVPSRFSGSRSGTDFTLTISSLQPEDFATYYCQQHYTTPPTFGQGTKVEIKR
B3: Trastuzumab HCDR3 variant SIYGTDYYWFAD (Fab, V domains shown)
VH: EVQLVESGGGLVQPGGSLRLSCAASGFNIKDTYIHWVRQAPGKGLEWVARIYPTNGYTRYADSVKGRFTISADTSKNTAYLQMNSLRAEDTAVYYCSIYGTDYYWFADWGQGTLVTVSS
VL: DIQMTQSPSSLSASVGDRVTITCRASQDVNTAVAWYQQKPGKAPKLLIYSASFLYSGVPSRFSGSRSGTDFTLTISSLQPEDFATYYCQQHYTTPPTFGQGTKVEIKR
B4: Trastuzumab HCDR3 variant ARYYVGYYAMDY (Fab, V domains shown)
VH: EVQLVESGGGLVQPGGSLRLSCAASGFNIKDTYIHWVRQAPGKGLEWVARIYPTNGYTRYADSVKGRFTISADTSKNTAYLQMNSLRAEDTAVYYCARYYVGYYAMDYWGQGTLVTVSS
VL: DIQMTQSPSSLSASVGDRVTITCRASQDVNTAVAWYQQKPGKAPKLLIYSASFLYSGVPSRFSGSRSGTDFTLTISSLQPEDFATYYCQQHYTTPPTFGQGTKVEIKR
B5: Trastuzumab HCDR3 variant … (Fab, V domains shown)
VH: EVQLVESGGGLVQPGGSLRLSCAASGFNIKDTYIHWVRQAPGKGLEWVARIYPTNGYTRYADSVKGRFTISADTSKNTAYLQMNSLRAEDTAVYYCARYYDYGYTFDYWGQGTLVTVSS
VL: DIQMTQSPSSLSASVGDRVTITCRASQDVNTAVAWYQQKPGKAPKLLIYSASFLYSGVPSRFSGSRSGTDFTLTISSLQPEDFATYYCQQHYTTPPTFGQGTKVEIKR
B6: Trastuzumab HCDR3 variant ARYYYSGYYMSV (Fab, V domains shown)
VH: EVQLVESGGGLVQPGGSLRLSCAASGFNIKDTYIHWVRQAPGKGLEWVARIYPTNGYTRYADSVKGRFTISADTSKNTAYLQMNSLRAEDTAVYYCARYYYSGYYMSVWGQGTLVTVSS
VL: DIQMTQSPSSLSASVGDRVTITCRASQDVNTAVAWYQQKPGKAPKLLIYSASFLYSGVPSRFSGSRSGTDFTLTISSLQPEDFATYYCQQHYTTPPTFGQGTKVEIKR
B7: Trastuzumab HCDR3 variant ATNAFGLWSYGF (Fab, V domains shown)
VH: EVQLVESGGGLVQPGGSLRLSCAASGFNIKDTYIHWVRQAPGKGLEWVARIYPTNGYTRYADSVKGRFTISADTSKNTAYLQMNSLRAEDTAVYYCATNAFGLWSYGFWGQGTLVTVSS
VL: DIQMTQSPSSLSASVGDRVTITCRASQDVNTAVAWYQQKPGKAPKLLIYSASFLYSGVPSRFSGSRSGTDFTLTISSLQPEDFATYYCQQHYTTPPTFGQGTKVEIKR
B8: Trastuzumab HCDR3 variant TRYFYDFPYMDY (Fab, V domains shown)
VH: EVQLVESGGGLVQPGGSLRLSCAASGFNIKDTYIHWVRQAPGKGLEWVARIYPTNGYTRYADSVKGRFTISADTSKNTAYLQMNSLRAEDTAVYYCTRYFYDFPYMDYWGQGTLVTVSS
VL: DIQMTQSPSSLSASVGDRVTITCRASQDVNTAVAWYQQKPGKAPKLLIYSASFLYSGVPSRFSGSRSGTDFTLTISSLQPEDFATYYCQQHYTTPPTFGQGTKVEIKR
B9: Trastuzumab HCDR3 variant TLNGPLYWMWTL (Fab, V domains shown)
VH: EVQLVESGGGLVQPGGSLRLSCAASGFNIKDTYIHWVRQAPGKGLEWVARIYPTNGYTRYADSVKGRFTISADTSKNTAYLQMNSLRAEDTAVYYCTLNGPLYWMWTLWGQGTLVTVSS
VL: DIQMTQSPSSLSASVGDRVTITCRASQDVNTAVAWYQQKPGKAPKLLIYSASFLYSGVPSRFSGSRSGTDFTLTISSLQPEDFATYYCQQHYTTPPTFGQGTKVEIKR
B10: Trastuzumab HCDR3 variant TRNGPLYWHWDL (Fab, V domains shown)
VH: EVQLVESGGGLVQPGGSLRLSCAASGFNIKDTYIHWVRQAPGKGLEWVARIYPTNGYTRYADSVKGRFTISADTSKNTAYLQMNSLRAEDTAVYYCTRNGPLYWHWDLWGQGTLVTVSS
VL: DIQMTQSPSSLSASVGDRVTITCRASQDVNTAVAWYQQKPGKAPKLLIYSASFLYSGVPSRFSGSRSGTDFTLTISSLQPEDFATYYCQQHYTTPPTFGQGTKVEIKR
B11: Trastuzumab HCDR3 variant TRYYDGYYAMDY (Fab, V domains shown)
VH: EVQLVESGGGLVQPGGSLRLSCAASGFNIKDTYIHWVRQAPGKGLEWVARIYPTNGYTRYADSVKGRFTISADTSKNTAYLQMNSLRAEDTAVYYCTRYYDGYYAMDYWGQGTLVTVSS
VL: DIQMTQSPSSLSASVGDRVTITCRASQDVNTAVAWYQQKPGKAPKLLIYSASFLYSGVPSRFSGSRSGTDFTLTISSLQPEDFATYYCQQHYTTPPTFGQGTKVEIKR
B12: Trastuzumab HCDR3 variant TRTRSGAYFFDY (Fab, V domains shown)
VH: EVQLVESGGGLVQPGGSLRLSCAASGFNIKDTYIHWVRQAPGKGLEWVARIYPTNGYTRYADSVKGRFTISADTSKNTAYLQMNSLRAEDTAVYYCTRTRSGAYFFDYWGQGTLVTVSS
VL: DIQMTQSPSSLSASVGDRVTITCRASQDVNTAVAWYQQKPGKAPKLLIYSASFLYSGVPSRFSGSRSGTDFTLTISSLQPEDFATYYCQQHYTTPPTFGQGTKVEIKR
B13: Trastuzumab HCDR3 variant ATGPYTVYSYPY (Fab, V domains shown)
VH: EVQLVESGGGLVQPGGSLRLSCAASGFNIKDTYIHWVRQAPGKGLEWVARIYPTNGYTRYADSVKGRFTISADTSKNTAYLQMNSLRAEDTAVYYCATGPYTVYSYPYWGQGTLVTVSS
VL: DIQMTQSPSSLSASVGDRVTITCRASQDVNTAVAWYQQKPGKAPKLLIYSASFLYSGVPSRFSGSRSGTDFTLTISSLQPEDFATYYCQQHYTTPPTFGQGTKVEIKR
B14: Trastuzumab HCDR3 variant VRYYRGYYYFDY (Fab, V domains shown)
VH: EVQLVESGGGLVQPGGSLRLSCAASGFNIKDTYIHWVRQAPGKGLEWVARIYPTNGYTRYADSVKGRFTISADTSKNTAYLQMNSLRAEDTAVYYCVRYYRGYYYFDYWGQGTLVTVSS
VL: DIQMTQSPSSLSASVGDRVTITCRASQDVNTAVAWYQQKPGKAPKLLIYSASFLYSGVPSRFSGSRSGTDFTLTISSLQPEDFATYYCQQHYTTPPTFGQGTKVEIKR
B15: Trastuzumab HCDR3 variant ASYMGIVGYYPG (Fab, V domains shown)
VH: EVQLVESGGGLVQPGGSLRLSCAASGFNIKDTYIHWVRQAPGKGLEWVARIYPTNGYTRYADSVKGRFTISADTSKNTAYLQMNSLRAEDTAVYYCASYMGIVGYYPGWGQGTLVTVSS
VL: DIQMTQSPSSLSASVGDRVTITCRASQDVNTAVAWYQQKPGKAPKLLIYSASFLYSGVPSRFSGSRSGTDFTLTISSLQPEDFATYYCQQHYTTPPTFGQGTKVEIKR
B16: Trastuzumab HCDR3 variant ASGDLTAGSSQT (Fab, V domains shown)
VH: EVQLVESGGGLVQPGGSLRLSCAASGFNIKDTYIHWVRQAPGKGLEWVARIYPTNGYTRYADSVKGRFTISADTSKNTAYLQMNSLRAEDTAVYYCASGDLTAGSSQTWGQGTLVTVSS
VL: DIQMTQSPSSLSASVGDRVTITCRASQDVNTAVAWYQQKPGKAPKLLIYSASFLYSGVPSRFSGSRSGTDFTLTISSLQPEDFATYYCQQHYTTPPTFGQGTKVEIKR
B17: Trastuzumab HCDR3 variant SRWYGDYFAMDY (Fab, V domains shown)
VH: EVQLVESGGGLVQPGGSLRLSCAASGFNIKDTYIHWVRQAPGKGLEWVARIYPTNGYTRYADSVKGRFTISADTSKNTAYLQMNSLRAEDTAVYYCSRWYGDYFAMDYWGQGTLVTVSS
VL: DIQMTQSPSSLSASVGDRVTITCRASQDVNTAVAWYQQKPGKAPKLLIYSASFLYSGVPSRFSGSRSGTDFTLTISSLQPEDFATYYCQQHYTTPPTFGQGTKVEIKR
B18: Trastuzumab HCDR3 variant VKHGIDYYWYGD (Fab, V domains shown)
VH: EVQLVESGGGLVQPGGSLRLSCAASGFNIKDTYIHWVRQAPGKGLEWVARIYPTNGYTRYADSVKGRFTISADTSKNTAYLQMNSLRAEDTAVYYCVKHGIDYYWYGDWGQGTLVTVSS
VL: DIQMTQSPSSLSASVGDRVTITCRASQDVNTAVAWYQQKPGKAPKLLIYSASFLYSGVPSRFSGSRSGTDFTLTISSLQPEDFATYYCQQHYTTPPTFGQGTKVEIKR
B19: Trastuzumab HCDR3 variant ASYYDYYYAFGT (Fab, V domains shown)
VH: EVQLVESGGGLVQPGGSLRLSCAASGFNIKDTYIHWVRQAPGKGLEWVARIYPTNGYTRYADSVKGRFTISADTSKNTAYLQMNSLRAEDTAVYYCASYYDYYYAFGTWGQGTLVTVSS
VL: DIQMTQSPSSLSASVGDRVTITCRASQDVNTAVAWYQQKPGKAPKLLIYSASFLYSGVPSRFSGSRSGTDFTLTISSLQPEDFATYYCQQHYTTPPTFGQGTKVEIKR
B20: Trastuzumab HCDR3 variant ARYGYGYYYYFDY (Fab, V domains shown)
VH: EVQLVESGGGLVQPGGSLRLSCAASGFNIKDTYIHWVRQAPGKGLEWVARIYPTNGYTRYADSVKGRFTISADTSKNTAYLQMNSLRAEDTAVYYCARYGYGYYYYFDYWGQGTLVTVSS
VL: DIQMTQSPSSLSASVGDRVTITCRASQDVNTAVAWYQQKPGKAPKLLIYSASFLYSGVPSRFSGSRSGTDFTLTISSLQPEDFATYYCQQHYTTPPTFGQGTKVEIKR
B21: Trastuzumab HCDR3 variant AGSSASGWYHYTT (Fab, V domains shown)
VH: EVQLVESGGGLVQPGGSLRLSCAASGFNIKDTYIHWVRQAPGKGLEWVARIYPTNGYTRYADSVKGRFTISADTSKNTAYLQMNSLRAEDTAVYYCAGSSASGWYHYTTWGQGTLVTVSS
VL: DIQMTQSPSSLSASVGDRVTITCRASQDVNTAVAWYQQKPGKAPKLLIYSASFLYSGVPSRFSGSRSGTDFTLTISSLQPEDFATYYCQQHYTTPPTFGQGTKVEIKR

Several values for one entry are separate records, joined by “and”; a condition that tells them apart may be missing. Equal entries are not always repeated.

The experiment has as its target human epidermal growth factor receptor 2 (HER2) extracellular domain (human, UniProt P04626 23-629). Nature of the experiment: SPR. (In general: Surface plasmon resonance follows binding to a sensor surface in real time, without labels.)
Broadly, the Kd is the concentration at which binding is half-saturated. The low end stands for higher affinity, the high end for lower affinity. As for B1, the Kd was 74.3 nM and the “log(KD (M))” value is -7.13 log(M).

B2: binding was characterised by a dissociation constant (Kd) of 32.3 nM and the “log(KD (M))” value was -7.49 log(M).

For B3, the affinity, expressed as Kd, was 50.4 nM and the “log(KD (M))” value is -7.3 log(M).

As to B4, binding was put at a Kd of 71.6 nM and the “log(KD (M))” value was -7.15 log(M).

Regarding B5, the dissociation constant (Kd) is 61.2 nM and the “log(KD (M))” value was -7.21 log(M).

For the molecule B6, the Kd worked out at 85.2 nM and the “log(KD (M))” value is -7.07 log(M).

On to B7, for which the Kd turned out to be 52.8 nM and the “log(KD (M))” value is -7.28 log(M).

For the molecule B8, binding was put at a Kd of 56.8 nM and the “log(KD (M))” value is -7.25 log(M).

Take B9: the Kd was 116 nM and the “log(KD (M))” value is -6.94 log(M).

As for B10, the dissociation constant (Kd) is 234 nM and the “log(KD (M))” value is -6.63 log(M).

As to B11, the Kd came out at 33.1 nM and the “log(KD (M))” value was -7.48 log(M).

On to B12, for which the equilibrium dissociation constant (Kd) was 43.4 nM and the “log(KD (M))” value was -7.36 log(M).

As to B13, binding was characterised by a dissociation constant (Kd) of 120 nM and the “log(KD (M))” value was -6.92 log(M).

Take B14: the Kd worked out at 96.4 nM and the “log(KD (M))” value is -7.02 log(M).

As to B15, the Kd stood at 62.3 nM and the “log(KD (M))” value was -7.21 log(M).

On to B16, for which the Kd worked out at 219 nM and the “log(KD (M))” value is -6.66 log(M).

For the molecule B17, binding was put at a Kd of 51.8 nM and the “log(KD (M))” value was -7.29 log(M).

For B18, the affinity, expressed as Kd, was 60.1 nM and the “log(KD (M))” value is -7.22 log(M).

Consider B19, for which the affinity, expressed as Kd, was 36.1 nM and the “log(KD (M))” value is -7.44 log(M).

Turning to B20, the affinity, expressed as Kd, was 39.1 nM and the “log(KD (M))” value was -7.41 log(M).

B21: the Kd is 42.3 nM and 42.2 nM; the “log(KD (M))” value was -7.37 log(M).

These data come from patent publication US20250218531A1 (ABSCI, published 2025).
